Assays:
[1] = biological target: T1, TGF-beta1 (hTGF-beta1) (Homo sapiens, UniProt P01137 P01137:279-390); assay: filter; biphasic; Kd1 71.8 nM; P2 4.3%; details: tags: R&D Systems; biotinylated form (NFTG0) used for BIAcore; chain copies: 2
[2] = biological target: T1, TGF-beta1 (hTGF-beta1); assay: filter; biphasic; Kd1 67 nM; P2 4.3%; details: tags: R&D Systems; biotinylated form (NFTG0) used for BIAcore; chain copies: 2
[3] = biological target: T1, TGF-beta1 (hTGF-beta1); assay: filter; biphasic; Kd1 13.9±4.3 nM; details: tags: R&D Systems; biotinylated form (NFTG0) used for BIAcore; chain copies: 2
[4] = biological target: T1, TGF-beta1 (hTGF-beta1); assay: filter; biphasic; Kd1 20.7±13.8 nM; details: tags: R&D Systems; biotinylated form (NFTG0) used for BIAcore; chain copies: 2
[5] = biological target: T1, TGF-beta1 (hTGF-beta1); assay: filter; biphasic; Kd1 6.02±1.5 nM; details: tags: R&D Systems; biotinylated form (NFTG0) used for BIAcore; chain copies: 2
[6] = biological target: T1, TGF-beta1 (hTGF-beta1); assay: filter; biphasic; Kd1 5.0±0.6 nM; details: tags: R&D Systems; biotinylated form (NFTG0) used for BIAcore; chain copies: 2
[7] = biological target: T1, TGF-beta1 (hTGF-beta1); assay: filter; biphasic; Kd1 4.6±0.7 nM; details: tags: R&D Systems; biotinylated form (NFTG0) used for BIAcore; chain copies: 2
[8] = biological target: T1, TGF-beta1 (hTGF-beta1); assay: filter; biphasic; Kd1 11.5±2.0 nM; details: tags: R&D Systems; biotinylated form (NFTG0) used for BIAcore; chain copies: 2
[9] = biological target: T1, TGF-beta1 (hTGF-beta1); assay: filter; biphasic; Kd1 3.8±0.9 nM; details: tags: R&D Systems; biotinylated form (NFTG0) used for BIAcore; chain copies: 2
[10] = biological target: T1, TGF-beta1 (hTGF-beta1); assay: cell_activity; MLEC assay; details: tags: R&D Systems; biotinylated form (NFTG0) used for BIAcore; chain copies: 2
Procedure: (§1) Cells were plated at 10^5/mL in 96-well plates in MEM, 10 mM HEPES and 0.2% FBS. Following 4 hours of incubation at 37° C., when cells appeared to attach to the well surface, TGFβ1 was added at 2 pM with or without TGFβ1 ligands that ranged from 0.1 nM to 1 µM. In a second assay performed in order to determine cross-species reactivity, rather than using hTGFβ, a conditioned serum-free medium (CM) was used. CM was conditioned by culturing it in murine 3T3 fibroblast for 48 hours. Before use, this conditioned medium was heat treated at 80° C. for 10 minutes to activate the 3T3 cell derived TGFβ and then it was diluted to 50% and supplemented with 0.2% murine serum. In each assay, hTGFβ1 (or CM) was diluted appropriately in MEM and FBS (0.2% or murine serum) and the ligands were diluted in MEM. TGFβ1 (or CM) and ligand dilutions at 10× the final concentration were premixed at equal volumes and then were added to the cells. Following addition of the TGFβ1 (or CM)-ligand mixture, the cells were incubated for 16–18 hours prior to addition of ^3H-thymidine at 0.25 µCi per well and continued incubation for 7–8 additional hours. After incubation, the cells were washed and harvested with SKATRON filtering units and ^3H-thymidine incorporation in cellular DNA was quantitated by scintillation counting in Ecoscint. Data were plotted and analyzed as described in Park et al. (1990) J. Exp. Med. 171:1073) and Dower et al. (1984) J. Immunol.

[11] = biological target: T1, TGF-beta1 (hTGF-beta1); assay: filter; biphasic; Kd1 14.2±4.5 nM; details: tags: R&D Systems; biotinylated form (NFTG0) used for BIAcore; chain copies: 2
[12] = biological target: T1, TGF-beta1 (hTGF-beta1); assay: filter; biphasic; Kd1 23±6.4 nM; labelled 30-35 in Table 4 class 7 but sequence is 30-25; details: tags: R&D Systems; biotinylated form (NFTG0) used for BIAcore; chain copies: 2
[13] = biological target: T1, TGF-beta1 (hTGF-beta1); assay: filter; biphasic; Kd1 12.7±4.7 nM; details: tags: R&D Systems; biotinylated form (NFTG0) used for BIAcore; chain copies: 2
[14] = biological target: T1, TGF-beta1 (hTGF-beta1); assay: filter; biphasic; Kd1 7.7±1.6 nM; details: tags: R&D Systems; biotinylated form (NFTG0) used for BIAcore; chain copies: 2
[15] = biological target: T1, TGF-beta1 (hTGF-beta1); assay: cell_activity; MLEC growth suppression reversal; details: tags: R&D Systems; biotinylated form (NFTG0) used for BIAcore; chain copies: 2; label: 5'-biotin for BIAcore specificity; proposed double pseudoknot
Procedure: as §1, with “Following addition of the TGFβ1 (or CM)-ligand mixture, the cells were incubated for 16–18 hours prior to addition of ^3H-thymidine at 0.25 µCi per well and continued incubation for 7–8 additional hours.” left out

[16] = biological target: T1, TGF-beta1 (hTGF-beta1); assay: filter; biphasic; Kd1 12.3±2.4 nM; details: tags: R&D Systems; biotinylated form (NFTG0) used for BIAcore; chain copies: 2

T1 sequence (P01137 279-390, one chain of several): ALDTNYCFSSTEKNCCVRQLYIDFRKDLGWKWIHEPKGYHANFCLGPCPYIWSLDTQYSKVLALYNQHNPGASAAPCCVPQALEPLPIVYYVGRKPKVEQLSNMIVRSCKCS

B1: 30-16,27,38,46 (ssRNA)
RNA: GGGAGGACGAUGCGGUGCCUUUAGCUUAGGCAUUGCCUUCUGCCGCAGACGACUCGCCCGA
modifications: 2'-F C and U
For B1, which Kd [1] is on record?
Its Kd is 0.211 nM.

B2: 30-17 (ssRNA)
RNA: GGGAGGACGAUGCGGUGCCUUUAGCUUAGGCUUUGCCUUCUGCCGCAGACGACUCGCCCGA
modifications: 2'-F C and U
With B2 as the binder, how does the Kd [2] read?
Its Kd is 0.205 nM.

B3: 40-22,35 (ssRNA)
RNA: GGGAGGACGAUGCGGUUAGGGGCGUCAACACCGCUAUUACAAUUUUCGCUUCCCAGACGACUCGCCCGA
modifications: 2'-F C and U
How did the Kd [3] turn out when B3 was run?
Its Kd is 0.0176 nM.

B4: 30-35 (ssRNA)
RNA: GGGAGGACGAUGCGGUGUCUUUAGCCUAGGUGAUUCCUUCUGCCUCAGACGACUCGCCCGA
modifications: 2'-F C and U
Which Kd [4] does the source give for B4 here?
Its Kd is 0.224 nM.

B5: 30-39 (ssRNA)
RNA: GGGAGGACGAUGCGGUGUCUUUAGCUUAGGUGAUUCCUUCUGCCGCAGACGACUCGCCCGA
modifications: 2'-F C and U
B5 was tested. Which Kd [5] did it give?
Its Kd is 0.0325 nM.

B6: 40-04 (ssRNA)
RNA: GGGAGGACGAUGCGGAUGCCUUUUGCCUUCAGGGUGUAAUUCCUUGAUCUGUCCGCAGACGACUCGCCCGA
modifications: 2'-F C and U
For B6, which Kd [6] is on record?
The Kd was 0.0014 nM.

B7: 40-11 (ssRNA)
RNA: GGGAGGACGAUGCGGUGCCUUUAGUCUGAAUCUUCUACCAUGAUUCUCUGCCGCAGACGACUCGCCCGA
modifications: 2'-F C and U
With B7 as the binder, how does the Kd [7] read?
The Kd was 0.0049 nM.

B8: 40-39 (ssRNA)
RNA: GGGAGGACGAUGCGGUGCCUUUAGCCUAAGUUGAUCUAUUCAGCUUUCUGCCGCAGACGACUCGCCCGA
modifications: 2'-F C and U
B8 was tested. Which Kd [8] did it give?
The Kd was 0.00878 nM.

B9: 40-41 (ssRNA)
RNA: GGGAGGACGAUGCGGUGCCUUUAGCCUGAGUAUACUGAUGUAUAUUCUCUGCCGCAGACGACUCGCCCGA
modifications: 2'-F C and U
How did the Kd [9] turn out when B9 was run?
Its Kd is 0.0014 nM.

B10: 40-23 (ssRNA)
RNA: GGGAGGACGAUGCGGUUAGGGGCGUCAACACCGCUAUUACAAUCUUCGCUUCCCAGACGACUCGCCCGA
modifications: 2'-F C and U
B10 was tested. Which Ki [10] did it give?
The Ki was 0.75 nM.

What about the Kd [11] of the same binder?
Its Kd is 0.0156 nM.

B11: 30-25 (ssRNA)
RNA: GGGAGGACGAUGCGGUUGGCAUUGAAAGAGGCGUCAUAUGUUCGCCAGACGACUCGCCCGA
modifications: 2'-F C and U
With B11 as the binder, how does the Kd [12] read?
Its Kd is 0.00114 nM.

B12: 40-24 (ssRNA)
RNA: GGGAGGACGAUGCGGUUAUGGGCGUCAACACCGCUAUUACAACUUUCGCUUUCCCAGACGACUCGCCCGA
modifications: 2'-F C and U
Which Kd [13] does the source give for B12 here?
Its Kd is 0.0275 nM.

B13: 40-26 (ssRNA)
RNA: GGGAGGACGAUGCGGUUAGGGGCGUCAACAUCGCUAUUACAAUCUUCGCCUUCCCAGACGACUCGCCCGA
modifications: 2'-F C and U
For B13, which Kd [14] is on record?
Its Kd is 0.0408 nM.

B14: 40-03 (ssRNA)
RNA: GGGAGGACGAUGCGGGGGUUAUUGGGCGUCAACAUCCCCGAUUCUUUUCACGUCCAGACGACUCGCCCGA
modifications: 2'-F C and U
With B14 as the binder, how does the Ki [15] read?
The Ki was 0.4 nM.

B15: 40-28 (ssRNA)
RNA: GGGAGGACGAUGCGGUUAGGGGCGUCAACACCGCUAUUACAACUUUCGCCUCACCAGACGACUCGCCCGA
modifications: 2'-F C and U
With B15 as the binder, how does the Kd [16] read?
Its Kd is 0.0816 nM.

Source: patent publication US6124449, “High affinity TGFβ nucleic acid ligands and inhibitors” (NeXstar Pharmaceuticals, Inc.)
